Measured values: PMC8763920, “Unprotected peptide macrocyclization and stapling via a fluorine-thiol displacement reaction” (Nature Communications, 2022)
*1 amine or outer side, *2 acyl side, *3 side chain or, on linkers, in order; H or OH if unused. Where a SMILES comes first, the peptide text is derived from it. Bridges are numbered along the chain shown (N, C = ends). [ ]: non-standard residue; d: D form. X3 = O=C(CSCCCCCCCCSCC(=O)[*:2])[*:1]; X2 = O=C(CSCCCCCCCSCC(=O)[*:2])[*:1]; X1 = O=C(CSCCCCCCSCC(=O)[*:2])[*:1]; X4 = O=C(CSCCCCCSCC(=O)[*:2])[*:1]; dDap = NC[C@@H](N)C(=O)O; Dap = NC[C@H](N)C(=O)O

test: circular dichroism; details: water; pH ns; 25 °C; 70 uM

| Structure (SMILES) | helicity |
| --- | --- |
| CC(=O)N[C@@H](CCC(N)=O)C(=O)N[C@@H](CO)C(=O)N[C@@H](CCC(N)=O)C(=O)N[C@@H](CCC(N)=O)C(=O)N[C@H](C(=O)N[C@@H](Cc1ccccc1)C(=O)N[C@H]1CNC(=O)CSCCCCCCCCSCC(=O)NC[C@@H](C(=O)N[C@@H](CCC(N)=O)C(=O)N[C@@H](CC(N)=O)C(N)=O)NC(=O)[C@H](CC(C)C)NC(=O)[C@H](CC(C)C)NC(=O)[C@H](CCCNC(=N)N)NC(=O)[C@H](Cc2c[nH]c3ccccc23)NC(=O)[C@H](CC(C)C)NC(=O)[C@H](CC(N)=O)NC1=O)[C@@H](C)O | 42% |
| CC(=O)N[C@@H](CCC(N)=O)C(=O)N[C@@H](CO)C(=O)N[C@@H](CCC(N)=O)C(=O)N[C@@H](CCC(N)=O)C(=O)N[C@H](C(=O)N[C@@H](Cc1ccccc1)C(=O)N[C@H]1CNC(=O)CSCCCCCCCCSCC(=O)NC[C@H](C(=O)N[C@@H](CCC(N)=O)C(=O)N[C@@H](CC(N)=O)C(N)=O)NC(=O)[C@H](CC(C)C)NC(=O)[C@H](CC(C)C)NC(=O)[C@H](CCCNC(=N)N)NC(=O)[C@H](Cc2c[nH]c3ccccc23)NC(=O)[C@H](CC(C)C)NC(=O)[C@H](CC(N)=O)NC1=O)[C@@H](C)O | 37% |
| CC(=O)N[C@@H](CCC(N)=O)C(=O)N[C@@H](CO)C(=O)N[C@@H](CCC(N)=O)C(=O)N[C@@H](CCC(N)=O)C(=O)N[C@H](C(=O)N[C@@H](Cc1ccccc1)C(=O)N[C@H]1CNC(=O)CSCCCCCCCSCC(=O)NC[C@@H](C(=O)N[C@@H](CCC(N)=O)C(=O)N[C@@H](CC(N)=O)C(N)=O)NC(=O)[C@H](CC(C)C)NC(=O)[C@H](CC(C)C)NC(=O)[C@H](CCCNC(=N)N)NC(=O)[C@H](Cc2c[nH]c3ccccc23)NC(=O)[C@H](CC(C)C)NC(=O)[C@H](CC(N)=O)NC1=O)[C@@H](C)O | 36% |
| CC(=O)N[C@@H](CCC(N)=O)C(=O)N[C@@H](CO)C(=O)N[C@@H](CCC(N)=O)C(=O)N[C@@H](CCC(N)=O)C(=O)N[C@H](C(=O)N[C@@H](Cc1ccccc1)C(=O)N[C@H]1CNC(=O)CSCCCCCCCSCC(=O)NC[C@H](C(=O)N[C@@H](CCC(N)=O)C(=O)N[C@@H](CC(N)=O)C(N)=O)NC(=O)[C@H](CC(C)C)NC(=O)[C@H](CC(C)C)NC(=O)[C@H](CCCNC(=N)N)NC(=O)[C@H](Cc2c[nH]c3ccccc23)NC(=O)[C@H](CC(C)C)NC(=O)[C@H](CC(N)=O)NC1=O)[C@@H](C)O | 40% |
| CC(=O)N[C@@H](CCC(N)=O)C(=O)N[C@@H](CO)C(=O)N[C@@H](CCC(N)=O)C(=O)N[C@@H](CCC(N)=O)C(=O)N[C@H](C(=O)N[C@@H](Cc1ccccc1)C(=O)N[C@H]1CNC(=O)CSCc2ccc(cc2)-c2ccc(cc2)CSCC(=O)NC[C@@H](C(=O)N[C@@H](CCC(N)=O)C(=O)N[C@@H](CC(N)=O)C(N)=O)NC(=O)[C@H](CC(C)C)NC(=O)[C@H](CC(C)C)NC(=O)[C@H](CCCNC(=N)N)NC(=O)[C@H](Cc2c[nH]c3ccccc23)NC(=O)[C@H](CC(C)C)NC(=O)[C@H](CC(N)=O)NC1=O)[C@@H](C)O | 16% |
| CC(=O)N[C@@H](CCC(N)=O)C(=O)N[C@@H](CO)C(=O)N[C@@H](CCC(N)=O)C(=O)N[C@@H](CCC(N)=O)C(=O)N[C@H](C(=O)N[C@@H](Cc1ccccc1)C(=O)N[C@H]1CNC(=O)CSCc2ccc(cc2)-c2ccc(cc2)CSCC(=O)NC[C@H](C(=O)N[C@@H](CCC(N)=O)C(=O)N[C@@H](CC(N)=O)C(N)=O)NC(=O)[C@H](CC(C)C)NC(=O)[C@H](CC(C)C)NC(=O)[C@H](CCCNC(=N)N)NC(=O)[C@H](Cc2c[nH]c3ccccc23)NC(=O)[C@H](CC(C)C)NC(=O)[C@H](CC(N)=O)NC1=O)[C@@H](C)O | 18% |
| CC[C@H](C)[C@@H]1NC(=O)[C@@H](NC(=O)[C@H](CCC(=O)O)NC(=O)[C@@H]2CCCN2C(=O)[C@H](CC(N)=O)NC(=O)[C@H](CCC(=O)O)NC(C)=O)CNC(=O)CSCc2ccc(cc2)CSCC(=O)NC[C@@H](C(=O)N[C@@H](Cc2c[nH]cn2)C(=O)N[C@H](C(=O)N[C@@H](CCC(N)=O)C(=O)N[C@@H](CCCNC(=N)N)C(=O)N[C@H](C(=O)N[C@@H](CCSC)C(N)=O)C(C)C)C(C)C)NC(=O)[C@H](CC(=O)O)NC(=O)[C@H](CC(C)C)NC1=O | 17% |
| CC[C@H](C)[C@@H]1NC(=O)[C@@H](NC(=O)[C@H](CCC(=O)O)NC(=O)[C@@H]2CCCN2C(=O)[C@H](CC(N)=O)NC(=O)[C@H](CCC(=O)O)NC(C)=O)CNC(=O)CSCc2cccc(c2)CSCC(=O)NC[C@@H](C(=O)N[C@@H](Cc2c[nH]cn2)C(=O)N[C@H](C(=O)N[C@@H](CCC(N)=O)C(=O)N[C@@H](CCCNC(=N)N)C(=O)N[C@H](C(=O)N[C@@H](CCSC)C(N)=O)C(C)C)C(C)C)NC(=O)[C@H](CC(=O)O)NC(=O)[C@H](CC(C)C)NC1=O | 46% |
| CC[C@H](C)[C@@H]1NC(=O)[C@@H](NC(=O)[C@H](CCC(=O)O)NC(=O)[C@@H]2CCCN2C(=O)[C@H](CC(N)=O)NC(=O)[C@H](CCC(=O)O)NC(C)=O)CNC(=O)CSCc2cccc(c2)CSCC(=O)NC[C@H](C(=O)N[C@@H](Cc2c[nH]cn2)C(=O)N[C@H](C(=O)N[C@@H](CCC(N)=O)C(=O)N[C@@H](CCCNC(=N)N)C(=O)N[C@H](C(=O)N[C@@H](CCSC)C(N)=O)C(C)C)C(C)C)NC(=O)[C@H](CC(=O)O)NC(=O)[C@H](CC(C)C)NC1=O | 44% |
| CC[C@H](C)[C@@H]1NC(=O)[C@H](NC(=O)[C@H](CCC(=O)O)NC(=O)[C@@H]2CCCN2C(=O)[C@H](CC(N)=O)NC(=O)[C@H](CCC(=O)O)NC(C)=O)CNC(=O)CSCc2ccc(cc2)CSCC(=O)NC[C@H](C(=O)N[C@@H](Cc2c[nH]cn2)C(=O)N[C@H](C(=O)N[C@@H](CCC(N)=O)C(=O)N[C@@H](CCCNC(=N)N)C(=O)N[C@H](C(=O)N[C@@H](CCSC)C(N)=O)C(C)C)C(C)C)NC(=O)[C@H](CC(=O)O)NC(=O)[C@H](CC(C)C)NC1=O | 19% |
| CC[C@H](C)[C@@H]1NC(=O)[C@H](NC(=O)[C@H](CCC(=O)O)NC(=O)[C@@H]2CCCN2C(=O)[C@H](CC(N)=O)NC(=O)[C@H](CCC(=O)O)NC(C)=O)CNC(=O)CSCc2cccc(c2)CSCC(=O)NC[C@@H](C(=O)N[C@@H](Cc2c[nH]cn2)C(=O)N[C@H](C(=O)N[C@@H](CCC(N)=O)C(=O)N[C@@H](CCCNC(=N)N)C(=O)N[C@H](C(=O)N[C@@H](CCSC)C(N)=O)C(C)C)C(C)C)NC(=O)[C@H](CC(=O)O)NC(=O)[C@H](CC(C)C)NC1=O | 8% |
| CC[C@H](C)[C@@H]1NC(=O)[C@H](NC(=O)[C@H](CCC(=O)O)NC(=O)[C@@H]2CCCN2C(=O)[C@H](CC(N)=O)NC(=O)[C@H](CCC(=O)O)NC(C)=O)CNC(=O)CSCc2cccc(c2)CSCC(=O)NC[C@H](C(=O)N[C@@H](Cc2c[nH]cn2)C(=O)N[C@H](C(=O)N[C@@H](CCC(N)=O)C(=O)N[C@@H](CCCNC(=N)N)C(=O)N[C@H](C(=O)N[C@@H](CCSC)C(N)=O)C(C)C)C(C)C)NC(=O)[C@H](CC(=O)O)NC(=O)[C@H](CC(C)C)NC1=O | 13% |
| CC[C@H](C)[C@@H]1NC(=O)[C@@H](NC(=O)[C@H](CCC(=O)O)NC(=O)[C@@H]2CCCN2C(=O)[C@H](CC(N)=O)NC(=O)[C@H](CCC(=O)O)NC(C)=O)CNC(=O)CSCCCCCCSCC(=O)NC[C@@H](C(=O)N[C@@H](Cc2c[nH]cn2)C(=O)N[C@H](C(=O)N[C@@H](CCC(N)=O)C(=O)N[C@@H](CCCNC(=N)N)C(=O)N[C@H](C(=O)N[C@@H](CCSC)C(N)=O)C(C)C)C(C)C)NC(=O)[C@H](CC(=O)O)NC(=O)[C@H](CC(C)C)NC1=O (Ac-ENPE[Dap]ILD[Dap]HVQRVM-NH2; linker 5-9 via X1) | 29% |
| CC[C@H](C)[C@@H]1NC(=O)[C@@H](NC(=O)[C@H](CCC(=O)O)NC(=O)[C@@H]2CCCN2C(=O)[C@H](CC(N)=O)NC(=O)[C@H](CCC(=O)O)NC(C)=O)CNC(=O)CSCCCCCCCSCC(=O)NC[C@@H](C(=O)N[C@@H](Cc2c[nH]cn2)C(=O)N[C@H](C(=O)N[C@@H](CCC(N)=O)C(=O)N[C@@H](CCCNC(=N)N)C(=O)N[C@H](C(=O)N[C@@H](CCSC)C(N)=O)C(C)C)C(C)C)NC(=O)[C@H](CC(=O)O)NC(=O)[C@H](CC(C)C)NC1=O (Ac-ENPE[Dap]ILD[Dap]HVQRVM-NH2; linker 5-9 via X2) | 18% |
| CC[C@H](C)[C@@H]1NC(=O)[C@@H](NC(=O)[C@H](CCC(=O)O)NC(=O)[C@@H]2CCCN2C(=O)[C@H](CC(N)=O)NC(=O)[C@H](CCC(=O)O)NC(C)=O)CNC(=O)CSCCCCCCCCSCC(=O)NC[C@@H](C(=O)N[C@@H](Cc2c[nH]cn2)C(=O)N[C@H](C(=O)N[C@@H](CCC(N)=O)C(=O)N[C@@H](CCCNC(=N)N)C(=O)N[C@H](C(=O)N[C@@H](CCSC)C(N)=O)C(C)C)C(C)C)NC(=O)[C@H](CC(=O)O)NC(=O)[C@H](CC(C)C)NC1=O (Ac-ENPE[Dap]ILD[Dap]HVQRVM-NH2; linker 5-9 via X3) | 25% |
| CC[C@H](C)[C@@H]1NC(=O)[C@@H](NC(=O)[C@H](CCC(=O)O)NC(=O)[C@@H]2CCCN2C(=O)[C@H](CC(N)=O)NC(=O)[C@H](CCC(=O)O)NC(C)=O)CNC(=O)CSCCCCCSCC(=O)NC[C@@H](C(=O)N[C@@H](Cc2c[nH]cn2)C(=O)N[C@H](C(=O)N[C@@H](CCC(N)=O)C(=O)N[C@@H](CCCNC(=N)N)C(=O)N[C@H](C(=O)N[C@@H](CCSC)C(N)=O)C(C)C)C(C)C)NC(=O)[C@H](CC(=O)O)NC(=O)[C@H](CC(C)C)NC1=O (Ac-ENPE[Dap]ILD[Dap]HVQRVM-NH2; linker 5-9 via X4) | 24% |
| CC[C@H](C)[C@@H]1NC(=O)[C@@H](NC(=O)[C@H](CCC(=O)O)NC(=O)[C@@H]2CCCN2C(=O)[C@H](CC(N)=O)NC(=O)[C@H](CCC(=O)O)NC(C)=O)CNC(=O)CSCCCCCCCSCC(=O)NC[C@H](C(=O)N[C@@H](Cc2c[nH]cn2)C(=O)N[C@H](C(=O)N[C@@H](CCC(N)=O)C(=O)N[C@@H](CCCNC(=N)N)C(=O)N[C@H](C(=O)N[C@@H](CCSC)C(N)=O)C(C)C)C(C)C)NC(=O)[C@H](CC(=O)O)NC(=O)[C@H](CC(C)C)NC1=O (Ac-ENPE[Dap]ILD[dDap]HVQRVM-NH2; linker 5-9 via X2) | 25% |
| CC[C@H](C)[C@@H]1NC(=O)[C@@H](NC(=O)[C@H](CCC(=O)O)NC(=O)[C@@H]2CCCN2C(=O)[C@H](CC(N)=O)NC(=O)[C@H](CCC(=O)O)NC(C)=O)CNC(=O)CSCCCCCCCCSCC(=O)NC[C@H](C(=O)N[C@@H](Cc2c[nH]cn2)C(=O)N[C@H](C(=O)N[C@@H](CCC(N)=O)C(=O)N[C@@H](CCCNC(=N)N)C(=O)N[C@H](C(=O)N[C@@H](CCSC)C(N)=O)C(C)C)C(C)C)NC(=O)[C@H](CC(=O)O)NC(=O)[C@H](CC(C)C)NC1=O (Ac-ENPE[Dap]ILD[dDap]HVQRVM-NH2; linker 5-9 via X3) | 14% |
